Earlier results on 2 substances are cited in article PMC4620043.

Read-outs that look alike come from different tables or passages of the source.

Series [1] has as its target fibrin (Homo sapiens) (UniProt P02671).
For series [2] the target is unchanged. The source holds these as a separate data set.

The term Kd denotes the equilibrium constant for the complex coming apart. CREKA peptide: the dissociation constant (Kd) with fibrin (Homo sapiens) [1] was 6 µM.
As to GPRPP peptide, in the series with fibrin (Homo sapiens) [2], the Kd is 0.008 µM.
